According to paper PMC4792071 (The Journal of Cell Biology, 2016):

T1: Arl2^Q70L-Venus (Drosophila melanogaster, UniProt Q06849 1-184, Q70L)
T1 sequence (looked up): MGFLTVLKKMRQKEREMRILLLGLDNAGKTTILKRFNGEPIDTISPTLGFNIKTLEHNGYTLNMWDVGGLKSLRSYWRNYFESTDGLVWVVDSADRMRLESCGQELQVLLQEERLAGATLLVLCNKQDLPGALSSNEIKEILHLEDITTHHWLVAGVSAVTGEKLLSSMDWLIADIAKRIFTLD

T2: Arl2^T30N-Venus (Drosophila melanogaster, UniProt Q06849 1-184, T30N)
T2 sequence (looked up): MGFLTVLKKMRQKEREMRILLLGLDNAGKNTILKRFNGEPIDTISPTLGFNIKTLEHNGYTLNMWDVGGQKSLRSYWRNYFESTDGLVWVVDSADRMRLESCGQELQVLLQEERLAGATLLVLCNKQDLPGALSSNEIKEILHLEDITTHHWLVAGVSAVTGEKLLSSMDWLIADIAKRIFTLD

B1: HA-TBCC (natural protein, Drosophila melanogaster, UniProt Q7KU40 1-355, looked up)
chain: MEGDAENRKDQILERLNKRNKDRQNYLDVKSELRSKETVQNEGVDYFYQTFSQKTMDIEQRLKDVQCGDGQPTDLARNFADITVEIQDLQRYLTASTMFLPDFKIKSCQNILNTLTAVSDETRQRLLPKKKFGFSGKKTVTKPKVPPNKDIVDAKLSKVPEKLGSNFTWTIANRTNEHIVLDSAKVNGQDITISKLNHCLVELQGHPGSVQVSRASKCTLLCGPIARSFFAENLEDCTLSIACQQLRLHSSRSIRIYMHVTCRAIIEDCKSIEIGEYNYDYSKLEADYLASGLNKAQNNYTDVADFNWLSPDVPSPNWSLLKDYPDPNWNALRRDFIANNHNSELKQDVKDISII
B2: HA-TBCE (natural protein, Drosophila melanogaster, UniProt A1Z6J5 1-523, looked up)
chain: MVGIIDEVQLFYPLGTRIKIGDNYGTVRYVGEVSGHMGSWLGIEWDDGLRGKHNGIVDGKRYFQTQTPTGGSFIRPGKVGPCATLEDAARERYLNYDSSNVDESLIREAQASLQASLFEVVGMDKIARKQSKFEQLEEVSVDQTPVNAAGYLKELTHLTTLNVSHTLIWNWEIVASIAQQLPSLTNLNLSSNRLVLPTSSQITELEPSFRQLKRINLRSCGFSDWKDVMHTALLWPNILSLGLQENSLGQLAEVDRTKIFKQLHELDLHRTNIMDFDQVTKLGNLTTLRLLNIMENGIEEIKLPDCDSQEKLNIFVSLEQLNLLHNPIWNEADAFNELDKLPQLKRLSKTPHLKSNFDEMFSKAVASIASLQFINKAEVTAEQRRGAEYDIWKKYALDWMQATQGGTDSLREFCRRHRTYPLLVKKYGSPADFVPRSQAKQSNLINVSIRHQLTGETWEKKVPRMITVQTLQGLVMKRFRLSGDVPQLCYVDALHPDLVVPLDNNAKTLDFYSVQEHDTVLVQ

Experiments:
[1] = molecular target: T1, Arl2^Q70L-Venus; assay: co-IP
[2] = molecular target: T2, Arl2^T30N-Venus; assay: co-IP

Binder	fold amount co-precipitated, against Arl2^T30N-Venus [1]	fold amount co-precipitated, against Arl2^Q70L-Venus [2]
B1	~9.6 fold	
B2		~3.1 fold
